{"source": "paper doi:10.1101/2025.09.04.674342", "about": "(2025)", "molecular_target": "CBP KIX domain (residues 586–672) (mouse, UniProt P45481 586-672)", "sequence (P45481 586-672)": "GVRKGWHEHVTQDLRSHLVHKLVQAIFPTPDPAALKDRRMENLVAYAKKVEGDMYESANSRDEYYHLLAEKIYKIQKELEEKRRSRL", "assay": "NMR"}
{"binder": "FSDLPWPL", "note": "[BMAL1 TAD switch peptide (residues 619–626, FSDLPWPL)]", "values": [{"measurement": "Kd", "value": "> 500", "unit": "µM"}]}
